According to the supplement of paper PMC10065799, “High-throughput profiling of sequence recognition by tyrosine kinases and SH2 domains using bacterial peptide display” (eLife, 2023):

Each sequence was assayed on Fer (mouse) (assay: phosphorylation enrichment, bacterial display (enrichment ratio); higher = better substrate or ligand; peptides without Tyr show the background).
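Also: 11-residue human phosphosite peptides and single-mutation variants displayed on the E. coli surface, counted by deep sequencing, each peptide's frequency after selection divided by its frequency in the unselected input library; frequency after pTyr selection over input frequency; kinase dosed for 20-30% of maximal phosphorylation in three min.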

Sequence	phosphorylation enrichment
ADGLEYPRTGL [MMUT_Y287_S288P]	0.47
SGTYQYIIAKF [FOXL2_Y83_I80T]	2.58
SVVVPYQPPEV [TP53_Y220_E221Q]	0.467
TVDASYYGGRG [ANTXR2_Y380]	0.559
DEEEEYEYMNR [ERBB3_Y1197_D1194E]	0.466
TGILLHGLASR [QARS1_Y57_Y57H]	0.218
RFMELYDLNRD [BBS2_Y648_YF]	0.703
EACPSYSHVVL [CHST6_Y168_R166P]	6
GRRGQYVMLSE [TTC7A_Y396]	0.45
WAFNLYDINKF [KCNIP3_Y174_D179Y_YF]	4.81
KGPGEYVNIEF [IRS1_Y896_S892G]	0.475
QEIATYRRQLE [KRT14_Y415_L418Q]	0.601
HEPKGYNANFC [TGFB2_Y341]	0.581
YYLGKYLQEVL [KLB_Y910]	0.523
DFTSRYLNASD [PKHD1_Y828]	0.45
SHEELYKWFTS [DYNC1H1_Y3051]	3.4
LRTAVHHEILI [CREBBP_Y1450_Y1450H]	0.675

Sequence	phosphorylation enrichment
RAMPVYKKAEH [TP63_Y231]	0.28
CNLDTYQKRLR [PLA2G2D_Y126_R121C]	0.395
HNVPIYEGFAL [ACTA1_Y168_YF]	22.7
LKALHYMAQTS [SACS_Y3367_V3369A]	0.746
LLREWYLQDPY [SIX3_Y225]	0.938
YRTPGYREVVI [TNS2_Y673_A670T]	0.399
CTTIFYNFMCN [TP53_Y234_H233Y_YF]	1.05
VGTTAYMAPEA [IRAK4_Y354]	0.452
HEKKAYSFCGT [RPS6KA3_Y226]	0.989
TLRKTYGEMAD [ALB_Y108_E106K]	0.379
GISDEYHMIRH [GCDH_Y398_V400M]	0.402
QMQNPYSSHSS [MUC13_Y501_R503S]	1.26
QYQEKYKQMEQ [HCN4_Y531_V534M]	0.632
VDGFVYKLHPS [GCK_Y413_S411F]	0.368
KLQKKYGPIFS [CYP17A1_Y60_YF]	0.324
RLNCIYFKDQT [RS1_Y165_W163C_YF]	0.56

These sequences were tested on AncSZ in the same assay as above.

Sequence	phosphorylation enrichment
ADGLEYPRTGL [MMUT_Y287_S288P]	0.722
SGTYQYIIAKF [FOXL2_Y83_I80T]	1.43
SVVVPYQPPEV [TP53_Y220_E221Q]	0.728
TVDASYYGGRG [ANTXR2_Y380]	0.512
DEEEEYEYMNR [ERBB3_Y1197_D1194E]	1.17
TGILLHGLASR [QARS1_Y57_Y57H]	0.417
RFMELYDLNRD [BBS2_Y648_YF]	1.28
EACPSYSHVVL [CHST6_Y168_R166P]	0.7
GRRGQYVMLSE [TTC7A_Y396]	0.692
WAFNLYDINKF [KCNIP3_Y174_D179Y_YF]	1.02
KGPGEYVNIEF [IRS1_Y896_S892G]	0.958
QEIATYRRQLE [KRT14_Y415_L418Q]	1.11
HEPKGYNANFC [TGFB2_Y341]	0.808
YYLGKYLQEVL [KLB_Y910]	1.2
DFTSRYLNASD [PKHD1_Y828]	0.797
SHEELYKWFTS [DYNC1H1_Y3051]	1.28
LRTAVHHEILI [CREBBP_Y1450_Y1450H]	1.09

Sequence	phosphorylation enrichment
RAMPVYKKAEH [TP63_Y231]	0.462
CNLDTYQKRLR [PLA2G2D_Y126_R121C]	0.65
HNVPIYEGFAL [ACTA1_Y168_YF]	1.59
LKALHYMAQTS [SACS_Y3367_V3369A]	0.89
LLREWYLQDPY [SIX3_Y225]	1.52
YRTPGYREVVI [TNS2_Y673_A670T]	0.799
CTTIFYNFMCN [TP53_Y234_H233Y_YF]	1.12
VGTTAYMAPEA [IRAK4_Y354]	0.707
HEKKAYSFCGT [RPS6KA3_Y226]	1.73
TLRKTYGEMAD [ALB_Y108_E106K]	0.535
GISDEYHMIRH [GCDH_Y398_V400M]	1.07
QMQNPYSSHSS [MUC13_Y501_R503S]	0.625
QYQEKYKQMEQ [HCN4_Y531_V534M]	0.99
VDGFVYKLHPS [GCK_Y413_S411F]	0.844
KLQKKYGPIFS [CYP17A1_Y60_YF]	0.555
RLNCIYFKDQT [RS1_Y165_W163C_YF]	1.16
